Where a chain is given by its changes, count along the chain named. Numbers in names are those of the source. Some results are limits rather than exact numbers.

The subject of assay [1] is GIPR W90Lfs*17. Put plainly: cAMP accumulation. The following applies: normalized to WT efficacy at 100 pM; n = 5. In kind it is cell-based, human.
Protocol: (§1) HEK293 (CRL-1573, American Type Culture Collection) and β-arrestin 1/2 knockout cells, generated from HEK293A[48], were used for cAMP measurement, homologues competition binding and β-arrestin 2 recruitment. For the internalization assay, endosomal signalling and basal receptor localization experiments, HEK293A (R70507, Thermo Fisher) cells were used. Both cell lines were cultured at 5% CO2 at 37 °C in Roswell Park Memorial Institute GlutaMAX-I supplemented with 10% fetal bovine serum, 180 units ml^−1 penicillin, and 45 g ml^−1 streptomycin. For the cAMP and binding experiments, cells were transfected with the calcium phosphate precipitation method[49]. The polyethyleneimine (PEI) transfection method was used for the β-arrestin 2 recruitment assays[50], endosomal signalling and basal receptor localization assays, while the lipofectamine transfection method was used for the internalization assay.
(§2) cAMP production was measured with the DiscoverX Hithunter cAMP assay according to the manufacturer’s protocol (DiscoverX). […] On the day of the assay, the cells were washed twice with HEPES-buffered saline (HBS) and incubated with HBS and 1 mM 3-isobutyl-1-methylxanthine for 30 min at 37 °C. […] After a 3-h incubation on a shaking table in the dark, the cAMP accumulation was measured based on luminescence with a Perkin Elmer EnVision 2104 Multilabel Microplate Reader. […]
Another assay concerns the target GIPR C84Pfs*70. The experiment in a line: Homologous competition binding. Further details: species or system human; key: NB: no binding. Conditions: n = 3.
Assay [2] deals with GIPR W90Lfs*17. The experiment in a line: Homologous competition binding. Conditions: normalized to WT GIPR; SEM 0.5, n = 3. Further details: species or system human.
Protocol: (§3) Binding experiments were performed simultaneously with the same transiently transfected HEK293 cells used for the cAMP experiments to enable the correlation of receptor expression with signalling between assays. In brief, 1 day before the assay, the transfected cells were seeded in a clear 96-well plate. […] On the assay day, the cells were washed twice with 4 °C binding buffer (50 mM HEPES buffer (pH 7.2), 1 mM CaCl2, 5 mM MgCl2 and 0.5% (wt/vol) bovine serum albumin) and incubated for 15 minutes at 4 °C. […] After incubation, the cells were washed in ice-cold binding buffer and lysed with 200 mmol l^−1 NaOH with 1% sodium dodecyl sulphate for 30 min. The gamma radiation was measured with a 2470 Wizard2 Automatic Gamma Counter.
(§4) To obtain Emax, EC50, Bmax, Kd and IC50 values, we analysed the data with the non-linear regression curve fitting program GraphPad Prism Software 9 (GraphPad).
(§5) The Bmax was calculated according to the following equation[51]: Bmax=B0×IC50/[L] in which B0 represents the total specific binding and [L] is the ligand concentration. The equilibrium dissociation constant (Kd) was obtained with the equation[51]: Kd=IC50−[L]
A further assay deals with GIPR Y258Sfs*50. Put plainly: Homologous competition binding. Further details: species or system human; key: NB: no binding. Conditions: n = 4.
For the next assay, the target named is T1, GIPR E463Q (Homo sapiens, UniProt P48546, E463Q).
T1 construct: host or cells: HEK293
T1 sequence (P48546 22-466 E463Q): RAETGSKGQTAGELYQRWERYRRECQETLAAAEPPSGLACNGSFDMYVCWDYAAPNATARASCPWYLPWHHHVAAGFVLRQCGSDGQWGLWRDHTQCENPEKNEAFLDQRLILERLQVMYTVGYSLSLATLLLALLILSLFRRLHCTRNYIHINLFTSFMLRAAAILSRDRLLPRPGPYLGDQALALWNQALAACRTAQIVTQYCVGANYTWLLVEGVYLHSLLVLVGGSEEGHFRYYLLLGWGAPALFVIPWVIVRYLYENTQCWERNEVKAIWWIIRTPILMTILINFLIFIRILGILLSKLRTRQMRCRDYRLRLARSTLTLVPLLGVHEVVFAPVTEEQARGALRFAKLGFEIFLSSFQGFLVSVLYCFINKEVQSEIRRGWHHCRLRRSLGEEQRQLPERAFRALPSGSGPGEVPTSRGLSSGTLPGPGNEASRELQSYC
The experiment in a line: cAMP accumulation. Format: cell-based. On the technique in general: Cyclic AMP is a second messenger, typically raised through Gs and lowered through Gi signalling.

For assay [3], the system named is GIPR variants (groups). The experiment in a line: cAMP accumulation. Format: cell-based, human. Conditions: for In vitro groups (cAMP): cAMP part of the in vitro group; for percentage_camp: cAMP production compared with WT; for Beta, cAMP: in vitro cAMP production per GIPR variant.
Protocol: as §1
(§6) cAMP production was measured with the DiscoverX Hithunter cAMP assay according to the manufacturer’s protocol (DiscoverX). […] On the day of the assay, the cells were washed twice with HEPES-buffered saline (HBS) and incubated with HBS and 1 mM 3-isobutyl-1-methylxanthine for 30 min at 37 °C. […] After the incubation, the assay medium was removed from the plate and the cells were washed with 30 µl PBS and treated with 40 µl enzyme donor–lysis buffer–chemiluminescent reagents and 10 µl cAMP antibodies for 60 min before 40 µl enzyme acceptor solution added. After a 3-h incubation on a shaking table in the dark, the cAMP accumulation was measured based on luminescence with a Perkin Elmer EnVision 2104 Multilabel Microplate Reader.
For cAMP accumulation, the data were fitted as a sigmoidal curve with a Hill slope of 1; for homologous competition binding, the data were fitted as a sigmoidal curve with a Hill slope of −1.
Assay [4] concerns GIPR variants (groups). Put plainly: β-arrestin 2 recruitment (BRET).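 For all read-outs here: BRET readout of β-arrestin 2 recruitment in transiently transfected HEK293 cells expressing WT GIPR or a GIPR variant plus GPCR kinase 2, Rluc8 donor and citrine acceptor.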 The following applies: for In vitro groups (β-arrestin): arr part of the in vitro group; for Beta, Barr: in vitro β-arrestin recruitment per GIPR variant. A general note: Arrestin recruitment assays detect the binding of arrestin to an activated receptor.
Protocol: Both cell lines were cultured at 5% CO2 at 37 °C in Roswell Park Memorial Institute GlutaMAX-I supplemented with 10% fetal bovine serum, 180 units ml^−1 penicillin, and 45 g ml^−1 streptomycin. […] The polyethyleneimine (PEI) transfection method was used for the β-arrestin 2 recruitment assays[50], endosomal signalling and basal receptor localization assays, while the lipofectamine transfection method was used for the internalization assay.
Measurement of β-arrestin 2 recruitment was performed with a BRET assay. Two days before the assay, the HEK293 cells were transiently transfected with either WT GIPR or the GIPR variants together with the donor Rluc8-Arrestin-3-Sp1, the acceptor mem-linker-citrine-SH3 and the GPCR kinase 2 to facilitate β-arrestin 2 recruitment. On assay day, the cells were washed with PBS and resuspended in PBS supplemented with 5 mmol l^−1 glucose. Subsequently, 85 µl of the cell suspension was transferred to a white 96-well plate and 10 µl of 50 µM coelenterazine-h was added.
Another assay has as its target T2, GIPR R43G (Homo sapiens, UniProt P48546, R43G).
T2 construct: host or cells: HEK293
T2 sequence (P48546 22-466 R43G): T1 sequence (P48546 22-466 E463Q) with R22G, Q442E
The experiment in a line: cAMP accumulation. In kind it is cell-based.

The target of a further assay is T3, GIPR R38L (Homo sapiens, UniProt P48546, R38L).
T3 construct: host or cells: HEK293
T3 sequence (P48546 22-466 R38L): T1 sequence (P48546 22-466 E463Q) with R17L, Q442E
Put plainly: cAMP accumulation. Format: cell-based.

The next assay addresses T4, GIPR T25R (Homo sapiens, UniProt P48546, T25R).
T4 construct: host or cells: HEK293
T4 sequence (P48546 22-466 T25R): T1 sequence (P48546 22-466 E463Q) with T4R, Q442E
Put plainly: cAMP accumulation. Format: cell-based.

The target of another assay is T5, GIPR E461* (Homo sapiens, UniProt P48546).
T5 construct: host or cells: HEK293
T5 sequence (P48546 22-460 limits assumed): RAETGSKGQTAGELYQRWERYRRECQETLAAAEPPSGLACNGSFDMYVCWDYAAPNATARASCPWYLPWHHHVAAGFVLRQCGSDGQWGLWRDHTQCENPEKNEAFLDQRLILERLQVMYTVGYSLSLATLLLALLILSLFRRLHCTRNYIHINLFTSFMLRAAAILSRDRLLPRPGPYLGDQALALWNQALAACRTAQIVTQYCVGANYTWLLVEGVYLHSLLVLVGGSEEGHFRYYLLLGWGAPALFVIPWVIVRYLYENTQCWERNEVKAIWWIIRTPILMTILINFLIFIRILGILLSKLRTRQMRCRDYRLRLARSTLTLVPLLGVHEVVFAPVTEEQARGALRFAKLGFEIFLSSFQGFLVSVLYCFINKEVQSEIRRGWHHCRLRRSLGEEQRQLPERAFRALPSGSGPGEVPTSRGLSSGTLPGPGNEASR
The experiment in a line: cAMP accumulation. In kind it is cell-based.

Protocol for GIPR C84Pfs*70: as §3, §4, §5
Protocol for GIPR E461*: (§7) HEK293 (CRL-1573, American Type Culture Collection) and β-arrestin 1/2 knockout cells, generated from HEK293A[48], were used for cAMP measurement, homologues competition binding and β-arrestin 2 recruitment. […] Both cell lines were cultured at 5% CO2 at 37 °C in Roswell Park Memorial Institute GlutaMAX-I supplemented with 10% fetal bovine serum, 180 units ml^−1 penicillin, and 45 g ml^−1 streptomycin. For the cAMP and binding experiments, cells were transfected with the calcium phosphate precipitation method[49].
as §6
Protocol for GIPR E463Q: as §7, §6
Protocol for GIPR R38L: HEK293 (CRL-1573, American Type Culture Collection) and β-arrestin 1/2 knockout cells, generated from HEK293A[48], were used for cAMP measurement, homologues competition binding and β-arrestin 2 recruitment. […] Both cell lines were cultured at 5% CO2 at 37 °C in Roswell Park Memorial Institute GlutaMAX-I supplemented with 10% fetal bovine serum, 180 units ml^−1 penicillin, and 45 g ml^−1 streptomycin. For the cAMP and binding experiments, cells were transfected with the calcium phosphate precipitation method[49]. The polyethyleneimine (PEI) transfection method was used for the β-arrestin 2 recruitment assays[50], endosomal signalling and basal receptor localization assays, while the lipofectamine transfection method was used for the internalization assay.
as §2
Protocol for GIPR R43G: as §7, §6
Protocol for GIPR T25R: as §7
cAMP production was measured with the DiscoverX Hithunter cAMP assay according to the manufacturer’s protocol (DiscoverX). […] On the day of the assay, the cells were washed twice with HEPES-buffered saline (HBS) and incubated with HBS and 1 mM 3-isobutyl-1-methylxanthine for 30 min at 37 °C. […] After the incubation, the assay medium was removed from the plate and the cells were washed with 30 µl PBS and treated with 40 µl enzyme donor–lysis buffer–chemiluminescent reagents and 10 µl cAMP antibodies for 60 min before 40 µl enzyme acceptor solution added. After a 3-h incubation on a shaking table in the dark, the cAMP accumulation was measured based on luminescence with a Perkin Elmer EnVision 2104 Multilabel Microplate Reader. […]
Protocol for GIPR Y258Sfs*50: as §3, §4, §5

Turning to GIP(1-42), the “cAMP (Efficacy of 100 pM)” value with GIPR W90Lfs*17 [1] was determined as 0.531. Besides, the “Kd (Binding)” value on GIPR C84Pfs*70 and at GIPR Y258Sfs*50 was “NB” in each case. In addition, the “Binding (Bmax)” value with GIPR C84Pfs*70 (normalized to WT GIPR) is given as “NB”; in the assay on GIPR W90Lfs*17 [2], 1.36; in the assay with GIPR Y258Sfs*50 (normalized to WT GIPR) it was “NB”.

B1: E463Q (protein)
chain: T1 sequence (P48546 22-466 E463Q)
With B1, in the assay with GIPR E463Q, the “Efficacy at 100pmol (cAMP)” value is given as 0.9097. Also, in the assay with GIPR variants (groups) [3], the “In vitro groups (cAMP)” value was “WT-like_camp”; the percentage_camp is listed as more than 50% cAMP; the “Beta, cAMP” value is given as 0.9097. In the assay on GIPR variants (groups) [4], the “In vitro groups (β-arrestin)” value is listed as “WT-like_arr” and the “Beta, Barr” value is recorded as 0.4933.

B2: R43G (protein)
chain: T1 sequence (P48546 22-466 E463Q) with R22G, Q442E
For B2, the “Efficacy at 100pmol (cAMP)” value with GIPR R43G is recorded as 1.1583. For the same molecule, in the assay on GIPR variants (groups) [3], the “In vitro groups (cAMP)” value was “WT-like_camp”; the percentage_camp is reported as more than 50% cAMP; the “Beta, cAMP” value came out at 1.1583. Moreover, in the assay on GIPR variants (groups) [4], the “In vitro groups (β-arrestin)” value was “LoF_arr” and the “Beta, Barr” value is on record as 0.4783.

B3: R38L (protein)
chain: T1 sequence (P48546 22-466 E463Q) with R17L, Q442E
For B3, the “Efficacy at 100pmol (cAMP)” value in the assay with GIPR R38L was 0.843. Moreover, in the assay on GIPR variants (groups) [3], the “In vitro groups (cAMP)” value is recorded as “WT-like_camp”; the percentage_camp is more than 50% cAMP; the “Beta, cAMP” value came out at 0.843. Further, in the assay on GIPR variants (groups) [4], the “In vitro groups (β-arrestin)” value was “WT-like_arr” and the “Beta, Barr” value worked out at 0.8228.

B4: T25R (protein)
chain: T1 sequence (P48546 22-466 E463Q) with T4R, Q442E
As for B4, the “Efficacy at 100pmol (cAMP)” value with GIPR T25R was 0.6972. Besides, in the assay on GIPR variants (groups) [3], the “In vitro groups (cAMP)” value is “WT-like_camp”; the percentage_camp was more than 50% cAMP; the “Beta, cAMP” value worked out at 0.6972. Besides, in the assay with GIPR variants (groups) [4], the “In vitro groups (β-arrestin)” value is “LoF_arr” and the “Beta, Barr” value was found to be 0.193.

B5: E461* (protein)
chain: T5 sequence (P48546 22-460 limits assumed)
Turning to B5, in the assay with GIPR E461*, the “Efficacy at 100pmol (cAMP)” value stood at 1.495. In the assay on GIPR variants (groups) [3], the “In vitro groups (cAMP)” value is on record as “GoF_camp” and the percentage_camp is more than 50% cAMP. The “In vitro groups (β-arrestin)” value in the assay on GIPR variants (groups) [4] is given as “WT-like_arr”.

The values are drawn from paper PMC11272584 (Nature Metabolism, 2024).
